Molecular target: histone H4 (human, UniProt P62805 1-103)
Experiment: cryo-EM structure; NCP or NCP^CENP-A (0.52 μM) mixed with SET8 (1.0 or 0.94 μM) at 25°C with 0.10 mM S-adenosyl-L-homocysteine, 50 mM NaCl, 50 mM KCl; complex purified by GraFix (sucrose gradient with paraformaldehyde cross-linking)
Details: both partners purified

binding result: binds
B1: human SET8 (KMT5A Isoform 2) (enzyme)
chain: MARGRKMSKPRAVEAAAAAAAVAATAPGPEMVERRGPGRPRTDGENVFTGQSKIYSYMSPNKCSGMRFPLQEENSVTHHEVKCQGKPLAGIYRKREEKRNAGNAVRSAMKSEEQKIKDARKGPLVPFPNQKSEAAEPPKTPPSSCDSTNAAIAKQALKKPIKGKQAPRKKAQGKTQQNRKLTDFYPVRRSSRKSKAELQSEERKRIDELIESGKEEGMKIDLIDGKGRGVIATKQFSRGDFVVEYHGDLIEITDAKKREALYAQDPSTGCYMYYFQYLSKTYCVDATRETNRLGRLINHSKCGNCQTKLHDIDGVPHLILIASRDIAAGEELLYDYGDRSKASIEAHPWLKH
notes: SET8 (KMT5A), human, isoform 2, UniProt Q9NQR1-2; residue numbers (Arg188, Arg192) count on isoform 2; His6 tag removed with PreScission protease (modified pET15b vector); also called PR-SET7; SETD8; source: E. coli BL21(DE3), purified (Ni-NTA, Mono S, Superdex 200)

— article PMC7893823, “Structural basis of nucleosomal histone H4 lysine 20 methylation by SET8 methyltransferase” (Life Science Alliance, 2021)
